The record followed here is patent EP0528271A1.

The target in the test is human PTH receptor on mouse cranial bone-derived osteoblast-like cell strain MC3T3-EI (mouse cell strain (receptor given as 'human PTH receptor')) (UniProt P41593). Kind of test: cell-based or functional assay.
Sequence of UniProt P41593 (P41593 27-591): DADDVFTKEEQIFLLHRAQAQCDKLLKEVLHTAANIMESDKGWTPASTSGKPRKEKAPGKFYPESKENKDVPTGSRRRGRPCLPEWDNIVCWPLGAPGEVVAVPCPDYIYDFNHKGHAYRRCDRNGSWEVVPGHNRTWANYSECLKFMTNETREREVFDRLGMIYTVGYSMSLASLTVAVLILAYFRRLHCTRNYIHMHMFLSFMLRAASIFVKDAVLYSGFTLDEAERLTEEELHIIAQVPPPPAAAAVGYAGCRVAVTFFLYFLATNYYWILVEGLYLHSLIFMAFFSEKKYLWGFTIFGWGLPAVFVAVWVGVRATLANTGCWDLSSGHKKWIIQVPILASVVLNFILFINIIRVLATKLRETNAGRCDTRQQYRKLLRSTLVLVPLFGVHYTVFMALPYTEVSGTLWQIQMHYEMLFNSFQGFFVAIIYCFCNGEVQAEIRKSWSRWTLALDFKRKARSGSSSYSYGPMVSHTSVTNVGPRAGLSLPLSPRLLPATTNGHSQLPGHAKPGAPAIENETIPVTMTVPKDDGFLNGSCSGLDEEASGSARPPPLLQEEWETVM
Human PTH (1-84) (ligand): the Specific Activity (cAMP production in MC3T3-EI cells) (relative to natural type human PTH) was 1. For [Cys³⁵] human PTH (1-84) (ligand), the Specific Activity (cAMP production in MC3T3-EI cells) (relative to natural type human PTH) worked out at 0.6. As for [Leu^8,18] human PTH (1-84) (ligand), the Specific Activity (cAMP production in MC3T3-EI cells) (relative to natural type human PTH) was 0.3. The substance [Leu⁸] human PTH (1-84) (ligand) returned a Specific Activity (cAMP production in MC3T3-EI cells) (relative to natural type human PTH) of 1.

Substance “[Leu⁸] human PTH (second row with this label in the specific activity table; identity uncertain) (ligand)” returned a Specific Activity (cAMP production in MC3T3-EI cells) (relative to natural type human PTH) of 0.2.
